The series is described as follows: yeast display, Sf9 membrane polyspecificity reagent, FACS + sequencing; frameworks hold sequencing errors. In outline:
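Nanobodies from a synthetic yeast display library (Saccharomyces cerevisiae BJ5465), induced 36–48 hours with galactose, were stained 1 hour at 4 °C with 10% biotinylated, detergent-solubilized Sf9 membrane reagent, enriched on streptavidin microbeads, then FACS-sorted. Anti-HA (expression) and streptavidin (reagent binding) fluorescence set low and high (top ~1%) gates. Polyreactivity labels come from the gate of origin. Genes were colony-PCR amplified, MiSeq 2 × 250 sequenced and filtered by CDR length.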
In the case of “QVQLVESGGGLVQAGGSLRLSCAASGNTLIVNAMGWYRQAPGKETELVAAITRDGRTNYADSVKGRFTISRDNAKNTVYLQMNSLKPEDTAVYYCAAEGVPDALDRDYWGQGTQVTVSS”, the “polyreactivity (PSR sort gate)” value is “low polyreactivity”.
For “QVQLVESGGGLVQAGGSLRLSCAASGRIFVYNTMGWYRQAPGKERELVAVISIGGSTKYADSVKGRFTISRDNAKNTVYLQMNSLKPEDTAVYYCNTDLAGLVYIAVDYWGQGTQVTVSS”, the “polyreactivity (PSR sort gate)” value was “low polyreactivity”.
As for “QVQLVDSGGGLVQAGGSLRLSCAASGSIYSSYAMGWYRQAPGKERELVASISSGGSKNYADSVKGRFTISRVNAKNTVYLQMNSLKPEDTAFYYCNVDLYNWRGDYTGYDYWGQGTQVTVSS”, the entry is “low polyreactivity”; as for “QLQLVESGGVLVQAGGSLRLSCAASGLTFAYYAMGSYRQAPGKERELVAAISWNGGRTYYAYSVKGRFTISRDNAKNTVYLQMNSLKPEDTAVYYCATRFYRPRDGLYDYWGQGTQVTVSS”, “high polyreactivity”.
The result for “QVQLVESAGGLVQAGGRLRLSCAASGFIFTTNAMGWYRQAPGKEREFVAAITRSGGSTYADSVKGRFTISRDNAKNTVYLQMNSLKPEDTAVYYFNADWAGVDTSYEYDYWGQGTQVTVSS” reads “low polyreactivity”.
The result for “QVQLVESGGGLVQAGGSLRLSCAASGRTFYWNAMGWYRQAPGKERELVASINGGGSTYYADSVKGRFTISRDNAKNTVYLKMNSLKPEDTAVYYCNTSYIIWYDSWGQGTQVTVSS” reads “low polyreactivity”; that for “QVQLVESGGGLVQAGGSLRLSCAASGITFYVNAMGWYRKAPGKERELVAGITLSGDSTYYADSVKGRFTISRDNAKNTVYLQMNSLKPEDTAVYYCAVEGGLWWPYTYYYWGQGTQVTVSS”, “high polyreactivity”; that for “QVQLVESGGGLVQAGGSLRLSCAASGRTFFYAMGWYRQAPGKEREFVAAISWSGGSTYYADSVKGRFTISRDNAKNTVYLQMNSLKPEDTAVYYCYKVGYYGVGTSKEFDYWGQGTQVTVSS”, “high polyreactivity”.
For “QVQLVESGGGLVQAGGSLRLSCADSGFTFSWYTMGWYRQAPGKERELVAAITVSGGSTYYADSVKGRFTISRDYAKNTVYLQMNSLKPEDTAVYYCNAQDPFTYYSSSPTYDYWGQGTQVTVSS”, the “polyreactivity (PSR sort gate)” value is recorded as “low polyreactivity”.
In the case of “QVQLVESGGGLVQAGGSLRLSCAASGSTFYHNVMGWYRQAPGKERELVASIYRGGSTYYADSVKGRFTISRDNAKNTVYLQMNSLKPEDTAVYYCAKEYKSLWWDGRMNYWGQGTQVTVSS”, the “polyreactivity (PSR sort gate)” value is reported as “low polyreactivity”.
Take “QVQLVESGGGLVQAGGSLRLSCAASGFTFAYYAMGWYRQAPGKERELVAAISYSGGSTYYADSVKGRFTISRDNAKNTVYLQMNSLKPVDTAVYYCAAEAGRRYNWGYDYWGQGTQVTVSS”: the “polyreactivity (PSR sort gate)” value is listed as “high polyreactivity”.
In the case of “QVQLVESGGGLVQAGGSLRLSCAASGRTFTRYAMGWYRQAPGKERELVAAISYIGGRTNYADSVKGRFTISRDNAKNTVYLQMNSLKPEDTAVYYCAASRPWVYYDGLDYWGQGTQVTVSS”, the “polyreactivity (PSR sort gate)” value was “high polyreactivity”.
The result for “QVQLVESGGGLVQAGGSLRLSCAASGSIFAAYTMGWYRQAPGKERELVAAISVSTVSTYYADSVKGRFTISRDNAKNTVYLLMNSLKPEDTAVYYCNAVATDSYPEKDEHDSWGQGTQVTVSS” reads “low polyreactivity”; that for “QVQLVESGGGLVQAGGSLRLSCAASGLIFRYYAMGWYRQAPGKERELVASISGSGGSTYYADSVKGRFTISRDNAKNTVYLQMNSLKPEDTAVYYCAATLAVYRRGPRYNYWGQGTQVTVSS”, “high polyreactivity”.
“QVHLVESGGGLVHAGGSLRLSSAASGSIFGANTMGWYRQAPGKERELVAGITSGARTYYADSVKGRFTISRDNAKNTVYLQMNSLKPEDTAVYYCAAKYAWRRYGFWGQGTQVTVSS”: the “polyreactivity (PSR sort gate)” value is on record as “high polyreactivity”.
The result for “QVQLVESGGGLVQAGGSLRLSCAASGFTFGVYAMGWYRQAPGKERELDAAISTTVGSTYYADSVKGRFTISRDNAKNTVYLQMNSLKPEDTAVYYCAAEYTGYINYYIYEYWGQGTQVTVSS” reads “low polyreactivity”; that for “QVQLVETGGGLVQAGGSLRLSCAASGIIIQNNAMGWYRQAPGTERELVAAISSSGGRTYYADSVKGRFTISRDNAKNTVYLQMNSLKPEDTEVYYCNKRWRGSYDYWGQGTQVTVSS”, “high polyreactivity”; that for “QVQLVESGGGLVQAGGSLRLSCAASGFTFTKYAMGWYRQAPVKERELVADITSGTSTYNADSVKGRFTISRDNAKNTVYLQMNSLKPEDTAVYYCAAPLYGRYSYGYWGQGTQVTVSS”, “high polyreactivity”.
As for “QVQLVESGGGLGQAGGSLRLSTAASGSNFRYNTMGWYRLGPGKERELVAAINISSSSTYYADSLKGRFTISRDNAKNTVYLQMNSLKPEVTAVYYCANRDYVPIATYENDDYWGQGTQVNVSS”, the entry is “low polyreactivity”; as for “QVQLVESGGGLVQAGGSLRLSCAASGRIFIDYAMGWYRPAPGKERELVATITSSGGSTYYADSVKGRFTISRDNAKNTVYLQMNRLKPEDTAVYYCNKEGSYDYDYWGQGTQVTVSS”, “low polyreactivity”.
As for “QVQLVESGGGLVQAGGSLRLTCAASARTFFGYAMGWYRQAHGKARELVARIRWSTTYYADSVKGRFTISRDNAKNTVYLQMNSLKPEDTAVYYCNAVYYYVGYRYDYWGQGTQVTVSS”, the “polyreactivity (PSR sort gate)” value is on record as “high polyreactivity”.
For “QVQLVESGGGLDQAGGSLRLSCAASGFIFSYYTMGWYRHAPGKERELVAAIRSSGGSTYADSVKGRFTISRDNAKNTVYLQMNSLKPEDTAVYYCAAESYYPAGIRGYWGQGTQVTVSS”, the “polyreactivity (PSR sort gate)” value is on record as “high polyreactivity”.
Turning to “HVQLVESGGGLVPAGGSLRLSCAASGSTFIGYARGWYRQAPGKERELVAAISWSGGRTYYADSVKGRFTISRDNAKNTVYLQMNSLKPEDTAVYYCNTVPYRISVQFNYWGQGTQVTVSS”, the “polyreactivity (PSR sort gate)” value is on record as “high polyreactivity”.
The result for “QVQLVESGGGLVQAGGSLRLSFAASGRIFYQYAMGWYRQAPGKERELVAAINSYGGRTYYADSVKGRFTISRDNAKYTVYLQMNSLKPEDTAVYYCAKLRVPYYAEYGYWGQGTQVTVSS” reads “high polyreactivity”; that for “QVQLVESGGGLVQAGGSLRLSCAASGLIFGRYTMGWYRQAPGKEREFVAAISRSGGSTYYADSVKGRFTISRDNAKITVYLQRNSLKPEDTAVYYCAARGSYTRPKRYGYWGQGTQVTVSS”, “high polyreactivity”; that for “QVQLVESGGGLVQAGGRLRLRCAASGIIFTAYVMGWYRQAPGKERELVADITSGDGSTYYADSVKGRFTISRDNAKNTVYLQMNSLKPEDTAVYYCAADYGQLVFDSYRREYDYWGQGTQVTVSS”, “low polyreactivity”.
The result for “QVQLVESGGGIVQAGGTLRLSCAASGIIFGSYAMGWYRQEPGKERELVAAINSSGGSTHYADSVKGRFTISRDNSKNTVYLQMNSLKPEDTAVYYCAADGYWRDYSGYWDYYYIYDYCGQGTQVTVSS” reads “low polyreactivity”; that for “QVQLVESGGGLVQAGGSLRLSCAASGRIFSWYDMGWDRQAPGKERELVAAISSGGSTIYADSVKGRFTISRDNAKQTVYLQMNSLKPEDTAVSYCNKSPSWWRYKTGLDYWGQGTQVTVSS”, “high polyreactivity”.
The result for “QVQLVESGGGLVQAGGSLRLSCAASGFTFEIYTMGWYRQAPGKERELVAAISTGGNTKYADSVKGRFTISRDNAKNTVYLQMNSLKPEDTAVYYCAKGRKPGYYYWGQGTQVTVSS” reads “high polyreactivity”; that for “QVQLVESGGGLVQAGGSLRLSCAASGSTFDANAMGWYRQAPGKERELVAAITSNGGSTYYADSVKGRFTISRDNAKNTVYLQMNSLKPEDTAVYYCDTEQHTVQDYDYWGQGTQVTVSS”, “low polyreactivity”.

(Values after the nanobody polyreactivity screen of Harvey et al. (2022).)
